The text below walks through data of US11912794B2, “Modulation of structured polypeptide specificity” (BicycleRD Limited, priority 2011, dated 2024).

The target in one test is T1, Biotinylated hPK (Homo sapiens, UniProt P03952).
T1 construct: IHPKA, from human plasma; purchased Innovative Research, Novi, MI, USA IHPKA; host or cells: human plasma
Nature of the test: Phage selections, abundance of sequences in selection outputs. The test is classed as binding. As to conditions: for Frequency (relative abundance in the total selection outputs): randomised WPAR motif at positions 2, 3, 4 & 5 within the 06-34-03 sequence.

Test [1] has as its target biotinylated human plasma Kallikrein (Homo sapiens, UniProt P03952). Nature of the test: Phage binding assay of individual clones, randomisation of peptide domains. The source says: Library construction: Small phage libraries were generated according to the methods of Heinis et al as described in ‘Cloning of phage libraries’ above. The sficx3ba primer was modified such that the bicycle-encoding portion was based on a parent 5×5 bicycle (5×5: two 5-residue loops) DNA sequence with only 4-6 codons randomized to NNS. The randomized codons were those encoding the peptide domain/motif of interest.
Assay of binding of individual clones: Library transformant colonies, or selection output colonies, were picked and grown as individual cultures in 2TY broth containing selective antibiotic. The picked colonies were DNA-sequenced using a QIAgen PyroMark Q96 DNA sequencer to reveal the amino-acid substitution present in each clone, and were assayed for human plasma Kallikrein binding as follows. The phage-containing supernatant was harvested from the culture and phage were cyclised with tris bromomethyl benzene(TBMB) based on the methods of Heinis et al (Nature Chemical Biology vol. 5 pp 502-507 (2009)). The purified phage from this process were assayed for binding to biotinylated human plasma Kallikrein using a homogeneous plate-based binding assay; assay read-out measured on a BMG Labtech Pherastar FS plate reader. The quantitative binding data from duplicate assay samples was averaged (mean) and expressed as signal:background. Assay data shown is representative of at least 2 independent experiments. The assay data was correlated with the peptide sequences.
The WPAR (SEQ ID NO: 18) motif identified from Example 1 was analysed in the context of the 06-34-03 peptide, in order to identify alternatives or improvements to the WPAR (SEQ ID NO: 18) motif. A library was constructed where positions 1, 6, 7, 8, 9 &10 of 06-34-03 were fixed and positions 2, 3, 4 & 5 were randomised (see ‘Randomisation of peptide domains—Library construction’ in Methods above). Selections against human plasma Kallikrein were performed at a variety of stringencies (see Phage selections' in Methods above). All output sequences were identified and analysed for target binding (see ‘Randomisation of peptide domains—Assay of binding of individual clones’ in Methods above). Table 17 lists each unique sequence, its relative abundance in the selection output (frequency), and a rank number according to target binding strength.
Selections against human plasma Kallikrein were performed with this library in order to study the non-WPAR (SEQ ID NO: 18) determinants of Kallikrein binding, and to isolate the optimal WPAR (SEQ ID NO: 18)-containing peptide sequence. Over 150 selection output sequences were isolated and screened for binding to human plasma Kallikrein (as described in Methods above). The sequences were ranked in order of Kallikrein binding and the top 50 sequences were aligned in Table 19. […]

Where [2] appears, read: randomised WPAR motif at positions 2, 3, 4 & 5 within the 06-34-03 sequence, 1 = best binding.
The mark [3] stands for this setting: WPAR domain fixed, positions 1, 6, 7, 8, 9 & 10 randomised, top 50.

Ends that are not written are not given here.

biotinylated human plasma Kallikrein, sequence (P03952 20-638): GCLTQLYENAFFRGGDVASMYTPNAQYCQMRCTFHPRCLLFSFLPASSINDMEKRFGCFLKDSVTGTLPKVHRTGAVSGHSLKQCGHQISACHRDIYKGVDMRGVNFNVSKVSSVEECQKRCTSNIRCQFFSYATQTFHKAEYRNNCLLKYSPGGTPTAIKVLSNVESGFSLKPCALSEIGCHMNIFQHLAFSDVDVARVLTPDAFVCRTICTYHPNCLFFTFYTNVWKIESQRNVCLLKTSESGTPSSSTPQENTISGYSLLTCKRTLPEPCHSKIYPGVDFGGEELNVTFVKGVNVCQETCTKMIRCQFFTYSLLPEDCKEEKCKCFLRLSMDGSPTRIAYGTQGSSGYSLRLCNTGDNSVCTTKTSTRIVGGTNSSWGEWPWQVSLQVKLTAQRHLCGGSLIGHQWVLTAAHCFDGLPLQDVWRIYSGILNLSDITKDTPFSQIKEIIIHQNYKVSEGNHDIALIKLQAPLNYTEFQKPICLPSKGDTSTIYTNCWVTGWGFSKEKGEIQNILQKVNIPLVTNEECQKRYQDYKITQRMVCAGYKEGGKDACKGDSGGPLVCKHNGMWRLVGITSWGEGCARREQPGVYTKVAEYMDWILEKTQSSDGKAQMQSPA
T1 sequence (P03952 20-638): as above

On to “SEQ ID NO: 75 (CSFPFRCTHQDLC; Synthetic sequence Kallikrein binder identified from selections using a randomised WPAR motif at positions 2, 3, 4 & 5 within the 06-34-03 sequence of PCT/EP2012/069898 (SEQ ID NO 58))”, for which the “Frequency (relative abundance in the total selection outputs)” value with Biotinylated hPK came out at 17. Also, the “Rank (sequences ranked according to Kallikrein binding)” value (shortened to “Rank”) in test [1] (setting [2]) is listed as 3.
On the same counts, the results for “SEQ ID NO: 84 (CSFPFRCTHQDLC; Synthetic sequence Kallikrein binder identified from selections using a randomised WPAR motif at positions 2, 3, 4 & 5 within the 06-34-03 sequence of PCT/EP2012/069898 (SEQ ID NO 58))” are 2 and 12.
On to “SEQ ID NO: 85 (CSLPFRCTHQDLC; Synthetic sequence Kallikrein binder identified from selections using a randomised WPAR motif at positions 2, 3, 4 & 5 within the 06-34-03 sequence of PCT/EP2012/069898 (SEQ ID NO 58))”, for which the “Frequency (relative abundance in the total selection outputs)” value with Biotinylated hPK was 3. The “Rank” value in test [1] (setting [2]) is 13.
On the same counts, the results for “SEQ ID NO: 88 (CSLPFKCTHQDLC; Synthetic sequence Kallikrein binder identified from selections using a randomised WPAR motif at positions 2, 3, 4 & 5 within the 06-34-03 sequence of PCT/EP2012/069898 (SEQ ID NO 58))” are 1 and 16.
On the same counts, the results for “SEQ ID NO: 89 (CSLPFRCTHQDLC; Synthetic sequence Kallikrein binder identified from selections using a randomised WPAR motif at positions 2, 3, 4 & 5 within the 06-34-03 sequence of PCT/EP2012/069898 (SEQ ID NO 58))” are 4 and 17.
The corresponding values for “SEQ ID NO: 92 (CSLPFKCTHQDLC; Synthetic sequence Kallikrein binder identified from selections using a randomised WPAR motif at positions 2, 3, 4 & 5 within the 06-34-03 sequence of PCT/EP2012/069898 (SEQ ID NO 58))” are 1 and 20.
On to “SEQ ID NO: 97 (CSLPFRCTHQDLC; Synthetic sequence Kallikrein binder identified from selections using a randomised WPAR motif at positions 2, 3, 4 & 5 within the 06-34-03 sequence of PCT/EP2012/069898 (SEQ ID NO 58))”, for which the “Frequency (relative abundance in the total selection outputs)” value in the test with Biotinylated hPK was 2. In addition, the “Rank” value in test [1] (setting [2]) came out at 25.
For “SEQ ID NO: 145 (CAWPARCMHDDLC; Synthetic sequence Kallikrein binder containing a WPAR motif)”, the “Rank” value in test [1] (setting [3]) was 32.
On the same count and under the same terms, for “SEQ ID NO: 146 (CSWPARCLHTELC; Synthetic sequence Kallikrein binder containing a WPAR motif)” the value was 33; for “SEQ ID NO: 147 (CSWPARCIHQDLC; Synthetic sequence Kallikrein binder containing a WPAR motif)”, 34.
Same read-out and setting: for “SEQ ID NO: 148 (CTWPARCTHTDMC; Synthetic sequence Kallikrein binder containing a WPAR motif)” the value was 35.
Take “SEQ ID NO: 149 (CAWPARCTHTHLC; Synthetic sequence Kallikrein binder containing a WPAR motif)”: the “Rank” value in test [1] (setting [3]) was 36.
Regarding “SEQ ID NO: 150 (CAWPARCLHADMC; Synthetic sequence Kallikrein binder containing a WPAR motif)”, the “Rank” value in test [1] (setting [3]) is recorded as 37.
With “SEQ ID NO: 151 (CAWPARCLHQDWC; Synthetic sequence Kallikrein binder containing a WPAR motif)”, the “Rank” value in test [1] (setting [3]) came to 38.
On the same count and under the same terms, for “SEQ ID NO: 152 (CDWPARCMHQEFC; Synthetic sequence Kallikrein binder containing a WPAR motif)” the value was 39.
Same read-out and setting: with “SEQ ID NO: 153 (CAWPARCTHQTMC; Synthetic sequence Kallikrein binder containing a WPAR motif)” the figure was 40; with “SEQ ID NO: 154 (CTWPARCLHQHMC; Synthetic sequence Kallikrein binder containing a WPAR motif)”, 41.
On the same count and under the same terms, with “SEQ ID NO: 155 (CSWPARCVHQDMC; Synthetic sequence Kallikrein binder containing a WPAR motif)” the figure was 42; with “SEQ ID NO: 156 (CEWPARCLHTDLC; Synthetic sequence Kallikrein binder containing a WPAR motif)”, 43; with “SEQ ID NO: 157 (CLWPARCLTTELC; Synthetic sequence Kallikrein binder containing a WPAR motif)”, 44.
Regarding “SEQ ID NO: 158 (CSWPARCTHAEMC; Synthetic sequence Kallikrein binder containing a WPAR motif)”, the “Rank” value in test [1] (setting [3]) is 45.
Still for that read-out and setting: for “SEQ ID NO: 159 (CRWPARCTHTDLC; Synthetic sequence Kallikrein binder containing a WPAR motif)” the value was 46.
Same read-out and setting: with “SEQ ID NO: 160 (CTWPARCTHQAFC; Synthetic sequence Kallikrein binder containing a WPAR motif)” the figure was 47.
On to “SEQ ID NO: 161 (CSWPARCTHSDLC; Synthetic sequence Kallikrein binder containing a WPAR motif)”, for which, in test [1] (setting [3]), the “Rank” value is 48.
Same read-out and setting: for “SEQ ID NO: 162 (CSWPARCLHDDLC; Synthetic sequence Kallikrein binder containing a WPAR motif)” the value was 49.
On the same count and under the same terms, for “SEQ ID NO: 163 (CPWPARCLHTDLC; Synthetic sequence Kallikrein binder containing a WPAR motif)” the value was 50; for “SEQ ID NO: 208 (CSWPARCTHQDLC; Synthetic sequence 06-34-03)”, 2.
With “WPAR: phage clone: WPAR at positions 2-5 within the 06-34-03 sequence, TBMB-cyclised (also: TBMB-cyclised within the 06-34-03 context, the cysteines lie outside this motif)”, the “Relative abundance of motif in selection output” value in the test with Biotinylated hPK (2nd stringency from High (1st value of cell)) was 19%; with Biotinylated hPK (3rd stringency from High (2nd value of cell)), 13%; with Biotinylated hPK (4th stringency from High (3rd value of cell)), 22%; with Biotinylated hPK (5th stringency from High (4th value of cell)), 6%; with Biotinylated hPK (stringency High), 17%; with Biotinylated hPK (stringency LOW) it was 4%. For the same substance, the “Kallikrein binding in target binding assay” value in test [1] is “optimal sequence for Kallikrein binding”.
